Results as given in IntAct's records for PubMed 11163258.

B1: Platelet-activating factor acetylhydrolase IB subunit beta (Homo sapiens), P43034 (parent)
chain: MVLSQRQRDELNRAIADYLRSNGYEEAYSVFKKEAELDVNEELDKKYAGLLEKKWTSVIRLQKKVMELESKLNEAKEEFTSGGPLGQKRDPKEWIPRPPEKYALSGHRSPVTRVIFHPVFSVMVSASEDATIKVWDYETGDFERTLKGHTDSVQDISFDHSGKLLASCSADMTIKLWDFQGFECIRTMHGHDHNVSSVAIMPNGDHIVSASRDKTIKMWEVQTGYCVKTFTGHREWVRMVRPNQDGTLIASCSNDQTVRVWVVATKECKAELREHEHVVECISWAPESSYSSISEATGSETKKSGKPGPFLLSGSRDKTIKMWDVSTGMCLMTLVGHDNWVRGVLFHSGGKFILSCADDKTLRVWDYKNKRCMKTLNAHEHFVTSLDFHKTAPYVVTGSVDQTVKVWECR
partner: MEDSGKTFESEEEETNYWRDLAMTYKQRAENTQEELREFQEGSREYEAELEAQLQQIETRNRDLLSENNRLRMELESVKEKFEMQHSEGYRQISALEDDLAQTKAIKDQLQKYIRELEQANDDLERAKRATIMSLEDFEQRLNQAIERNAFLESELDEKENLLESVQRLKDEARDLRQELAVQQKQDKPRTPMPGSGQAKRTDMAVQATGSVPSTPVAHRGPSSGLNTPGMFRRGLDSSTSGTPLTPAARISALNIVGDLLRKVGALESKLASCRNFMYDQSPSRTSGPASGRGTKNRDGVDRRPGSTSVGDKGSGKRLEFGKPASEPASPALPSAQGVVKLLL

Variants of: B1
Details: with nde1_mouse Nde1, Q9CZA6

Row | Variant | effect of a mutation on the interaction
1 | MVLSQRQRDELNRAIADYLRSNGYEEAYSVFKKEAELDVNEELDKKYAGLLEKKWTSVIRLQKKVMELESKLNEAKEEFTSGGPLGQKRDPKEWIPRPPEKYALSGHRSPVTRVIFHPVFSVMVSASEDATIKVWDYETGDFERTLKGHTDSVQDISFDHSGKLLASCPADMTIKLWDFQGFECIRTMHGHDHNVSSVAIMPNGDHIVSASRDKTIKMWEVQTGYCVKTFTGHREWVRMVRPNQDGTLIASCSNDQTVRVWVVATKECKAELREHEHVVECISWAPESSYSSISEATGSETKKSGKPGPFLLSGSRDKTIKMWDVSTGMCLMTLVGHDNWVRGVLFHSGGKFILSCADDKTLRVWDYKNKRCMKTLNAHEHFVTSLDFHKTAPYVVTGSVDQTVKVWECR [S169P] | decreasing interaction
2 | MVLSQRQRDELNRAIADYLRSNGYEEAYSVFKKEAELDVNEELDKKYAGLLEKKWTSVIRLQKKVMELESKLNEAKEEFTSGGPLGQKRDPKEWIPRPPEKYALSGHRSPVTRVIFHPVFSVMVSASEDATIKVWDYETGDFERTLKGRTDSVQDISFDHSGKLLASCSADMTIKLWDFQGFECIRTMHGHDHNVSSVAIMPNGDHIVSASRDKTIKMWEVQTGYCVKTFTGHREWVRMVRPNQDGTLIASCSNDQTVRVWVVATKECKAELREHEHVVECISWAPESSYSSISEATGSETKKSGKPGPFLLSGSRDKTIKMWDVSTGMCLMTLVGHDNWVRGVLFHSGGKFILSCADDKTLRVWDYKNKRCMKTLNAHEHFVTSLDFHKTAPYVVTGSVDQTVKVWECR [H149R] | decreasing interaction
